According to the RNAGym collection of RNA variant scans (doi:10.1073/pnas.2313332121):

B1: TPR t1 (parent)
chain: GACCAAUCUGCCCUCAGAGCUCGAGAACAUCUUCGGAUGCAGAGGAGGCAGGCUUCGGUGGCGCGAUAGCGCCAACGUCCUCAACCUCCAAUGCAUCCCACCACAUGAUGAUGCCUGAAGAGCCUUGGUUUUUUG

Variants of: B1
Test: polymerase ribozyme fitness, log enrichment relative to wild type (log ratio); higher = more active; in vitro selection for triplet polymerase activity
In short: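 PCR was used to build mutant libraries for each subunit of a heterodimeric triplet polymerase ribozyme, which were then transcribed. A single in vitro selection round, in triplicate, used a frozen incubation at −7 °C and recovered extended constructs by gel excision, streptavidin beads and RT-PCR. Fitness is the logarithm of genotype enrichment relative to wild-type enrichment, averaged over replicates with inverse-variance weights. The logarithm is base 2, and after Illumina sequencing only genotypes with ≥10 input reads and ≥1 read per output were kept.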

Variant | polymerase ribozyme fitness (log ratio)
A16U A18C G52A U96C U112A | -4.51
U112C G135U | -0.0479
G63C U125C | -3.57
C99A C124A | -4.35
G42C C70A C104U | -4.4
U21G C40U U87G | -1.55
C8A U96C U116G | -0.0172
A46U C82G U87G | -1.06
C12U G25C C94G G113A | -6.74
C79U A95C | -0.848
A5C C15U G60C U96A | -2.98
G51U C53U U112A A119G | -2.63
C15G G93A | -3.21
A16U G36C C62A A121C | -1.88
A91U C104U | -1.47
C64A G120U | -6.12
G44A G63A A111C G122A | -5
C8G U14A G57A C97U A103C | -6.07
U14A A74G G77C G120C | -0.447
C3U U55G | -0.611
A41U C53G G77A | -1.35
C4U G63C C76A A91C A100C C115G C123A | -4.89
G45C C62G G93U | -5.04
C62G U78C C79G A111G | -3.51

Variant | polymerase ribozyme fitness (log ratio)
G39A C62U A75U A83C U87C | -1.16
C12A C20U | -0.43
C12G A37U G61C A75G | -1.16
C70U C115U C123G | -1.96
C13G G117C | -4.58
C79G C101U | -1.49
A6U G47A C53U C56A U59A A83U | -1.88
G60A C86A C98G U109A G117U | -6.71
G60C C88U | -0.669
C11U G71U U132C | -0.794
A27C G51U C76U C115G C124G U131A G135U | -7.29
U9C G63A A74C C89A C104A U112C | -5.39
G10A C97G | -3.95
U9A G42A U129A | -2.88
C49U C72G G113U G117U | -6.76
C13A U14C A16C C115A A119G | -2
G61U G107C | -4.98
C56G G65A | -4.66
A74C C80A C101G C123A | -4.26
A27U C53U | -2.7
C82A U112A | 1.06
U9C C12U G39U C70A A111U C124A | -5.75
C34A G77C U78C | -2.16
A26U C64U | -3.52

Variant | polymerase ribozyme fitness (log ratio)
C12U G42U C49G C73U U96C | -2.57
C40U G42A G122U C123A | -1.77
A2U C12A G19A U30G C56A U112A C114G | -7.24
C12G G36A C53A A74G C89U | -1.5
A18U C56U U87G U106C A121C | -0.72
G45A G61C | -1.97
A37U G47A U116G | -3.09
C20U U21G C49A C98U | -4.2
C34A A37C A118G | -2.59
G51U C72U U106A | -3.68
C20G G110C G120C | -6.34
U9A C13U C62A C79G C94A U132A | -4.57
G69A C101U | -2.16
G51U C79G U87G | -1.09
G10U G61C | -1.82
A46U C88U A103G | -7.61
C20U C64U | -1.68
C12G G63U A66U G120U G127U | -0.34
G128C U133A | -2.85
U21G C56A C70U C89A G113U | -3.69
C53G C101A A121U U126G | -0.329
G71A G107A | -4.98
G42U G52A C72U U78A G128U | -4.36
G45C C72U C85G | -3.66

Variant | polymerase ribozyme fitness (log ratio)
C56G C79G C124U | -0.0923
C4U A74G C89G U112G | -2.61
U54A | 0.0154
G117C C123U U126A | -5.9
U7G C70U A83U U131A | 0.0577
C56U C72A G122A | -1.69
C53U G57C A83C | -0.254
A46U G120A G135A | -0.18
G25C A46U G61C C62A G113A C124A | -8.51
A41C C99U | -5.06
C4A G42A | -2.74
C8G C56U C104A U129G | -1.17
G60A C73G G110A U112C | -2.14
C20G G44A | -5.14
C8U C22A G63U U81C A105G | -7.76
C34U C102U | -2.22
G71A C115U | -1.95
C3U G48A | -1.92
C49G U92A C123G | -3.27
C3A C72U | -1.75
U9C C70G | -1.43
G45A C62U U112G C115G | -2.08
C34U A43G G63A G65U C124A | -6.99
U14C C53A | -1.96

Variant | polymerase ribozyme fitness (log ratio)
C20A A50U G120A | -3.84
A29U G69U U116C G117C | -1.83
A50C C73G | -1.15
U32C C102G G113A | -7.53
G77U C89A U109A | -6.3
C11A C82G C101A A121C | -0.28
C13A G71U | -1.35
A5C C12A C72U G113C | -3.72
C40U G42C | -2.23
A5G G69C | -1.4
G51A G93U C104U | -3.96
C56U U96C C114G | -3.1
G35U C82U | -7.04
C62G G113A C114G A121U | -4.27
C12A G36A U54A G57C C97A | -4.92
C62U A74G C88A | -3.21
G10U U30C U33C G71U C79U C101A C102G A111U | -7.18
C40U C53U A66G | -1.67
A16U U106A | -2.08
A2U A5C C13U G48A C70A | -4.35
G60U G71U | -1.98
A50C A111C C115U U129A | -6.02
G39A A50U G63C | -2.66
G35U C123G | -2.32

Variant | polymerase ribozyme fitness (log ratio)
A41U A50U C53A | -3.22
C13G A24G G48A G63C C86G U109A | -6.58
C40G G52A | -0.59
G52U C79G A83G A121G U132A | 0.919
G44A C72A | -0.836
C49G C72A | -0.887
A2U G19A | -4.15
G63C G113C | -3.38
C114U G120U | -2.8
A26C U55G | -5.98
A84U A121C | 2.22
C53U C76U | -0.497
G10U G19C A37U C72A | -1.54
C8U C72A A100C U132C | -0.83
C11A C28U C53U C89A | -5.79
C12G C15A A41G G110A | -4.25
A2G C73A A90G A105G | -2.1
C49U C98A | -5.99
C3U U92A | -2.91
C12A A27C C40G G63C G120A | -2.65
C56A C82U C104U G122A U125A | -1.2
C12G G45U | -0.996
C70U C86A | -1.13
C8G A83G U87C C101G | -1.58

Variant | polymerase ribozyme fitness (log ratio)
C15G A74U G117U | -0.0169
U9G C13A G110A | -1.62
C72U U92G | -2.59
C8A G77U U106G C115G | -1.95
G42U U55A C56G G77C C115A | -1.05
A6G G48A G71C G117A | -2.1
A43G A46U U55G | -2.46
C8A G10A C86U G120C | 1.44
G48C G61U C124A | 1.51
A37U C123U U126A | 0.344
C3U U7G G42U | -1.73
G61U C85G C97U | -3.66
G17U U67G C73A U78C G93U C98G U116C | -6.28
A37U C89U A108G | -3.18
G42U G69C | -2.39
G10U C34U G44C U112C | -5
C8G A95G | 0.646
C11A A16U C40U C56A | -4.65
C70G A108G | -3.92
A18U C53U C124G | -0.337
C13U A26C C56U | -5.2
U21C A24G A26G C53G G60U | -5.16
C13U C62U A83C C89U | -0.547
